Reference: patent publication US20180251570A1 (Bayer, published 2018)

T1: human tissue factor pathway inhibitor (TFPI) (human, UniProt P10646 29-304, limits assumed)
T1 construct: also called human TFPI (American Diagnostica)
T1 sequence (looked up): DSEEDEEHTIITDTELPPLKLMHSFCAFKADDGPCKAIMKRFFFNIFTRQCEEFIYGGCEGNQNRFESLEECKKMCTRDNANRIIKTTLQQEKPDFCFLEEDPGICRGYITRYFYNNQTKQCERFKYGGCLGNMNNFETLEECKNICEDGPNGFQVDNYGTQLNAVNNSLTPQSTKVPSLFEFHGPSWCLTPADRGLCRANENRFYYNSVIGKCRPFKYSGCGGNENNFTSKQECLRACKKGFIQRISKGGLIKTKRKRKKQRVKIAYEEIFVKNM


Biological target: T1, human tissue factor pathway inhibitor …
Experiment: BIACORE kinetics, CM4 chip with low density of amine-coupled human TFPI, antibody injected
Description: A CM4 sensor chip was immobilized with a low density of human TFPI using an amine coupling kit (GE HealthCare). Kinetic assays of parental IgG and IgG-linker1 were conducted using different concentration of the antibodies, followed by regeneration with pH 1.5 glycine buffer. The parental IgG and IgG-linker1 antibodies at a concentration of 1 μg were digested with 1 unit of biotinylated thrombin (Novagen) for 1 hr at 37° C. The antibodies with or without digestion were injected to a BIACORE™ system for TFPI-binding analysis.

| kon [M⁻¹ s⁻¹] | Binder |
| --- | --- |
| 1.54e+06 | parental IgG (parental anti-TFPI antibody) (antibody, Expressed in HEK293 6E cells; also called Parent IgG; WT antibody) heavy: EVQLVESGGGLVQPGGSLRLSCAASGFTFSSYGMDWVRQAPGKGLEWVSSIRGSRGSTYYADSVKGRFTISRDNSKNTLYLQMNSLRAEDTAVYYCARLYRYWFDYWGQGTLVTVSSASTKGPSVFPLAPCSRSTSESTAALGCLVKDYFPEPVTVSWNSGALTSGVHTFPAVLQSSGLYSLSSVVTVPSSNFGTQTYTCNVDHKPSNTKVDKTVERKCCVECPPCPAPPVAGPSVFLFPPKPKDTLMISRTPEVTCVVVDVSHEDPEVQFNWYVDGVEVHNAKTKPREEQFNSTFRVVSVLTVVHQDWLNGKEYKCKVSNKGLPAPIEKTISKTKGQPREPQVYTLPPSREEMTKNQVSLTCLVKGFYPSDIAVEWESNGQPENNYKTTPPMLDSDGSFFLYSKLTVDKSRWQQGNVFSCSVMHEALHNHYTQKSLSLSPG light: SYELTQPPSVSVSPGQTARITCSGDNLPKYYAHWYQQKPGQAPVVVIFYDVNRPSGIPERFSGSNSGNTATLTISGTQAMDEADYYCQAWWSSTPVFGGGTKLTVLGQPKAAPSVTLFPPSSEELQANKATLVCLISDFYPGAVTVAWKADSSPVKAGVETTTPSKQSNNKYAASSYLSLTPEQWKSHRSYSCQVTHEGSTVEKTVAPTECS |
| 1.9e+06 | IgG-linker1 (protease-regulated anti-TFPI IgG, undigested) (antibody, Expressed in HEK293 6E cells; also called IgG2-linker1) light: SYELTQPPSVSVSPGQTARITCSGDNLPKYYAHWYQQKPGQAPVVVIFYDVNRPSGIPERFSGSNSGNTATLTISGTQAMDEADYYCQAWWSSTPVFGGGTKLTVLGGGGSLVPRGSGGGGSGQPKAAPSVTLFPPSSEELQANKATLVCLISDFYPGAVTVAWKADSSPVKAGVETTTPSKQSNNKYAASSYLSLTPEQWKSHRSYSCQVTHEGSTVEKTVAPTECS heavy: EVQLVESGGGLVQPGGSLRLSCAASGFTFSSYGMDWVRQAPGKGLEWVSSIRGSRGSTYYADSVKGRFTISRDNSKNTLYLQMNSLRAEDTAVYYCARLYRYWFDYWGQGTLVTVSSASGGGGSLVPRGSGGGGSTKGPSVFPLAPCSRSTSESTAALGCLVKDYFPEPVTVSWNSGALTSGVHTFPAVLQSSGLYSLSSVVTVPSSNFGTQTYTCNVDHKPSNTKVDKTVERKCCVECPPCPAPPVAGPSVFLFPPKPKDTLMISRTPEVTCVVVDVSHEDPEVQFNWYVDGVEVHNAKTKPREEQFNSTFRVVSVLTVVHQDWLNGKEYKCKVSNKGLPAPIEKTISKTKGQPREPQVYTLPPSREEMTKNQVSLTCLVKGFYPSDIAVEWESNGQPENNYKTTPPMLDSDGSFFLYSKLTVDKSRWQQGNVFSCSVMHEALHNHYTQKSLSLSPG |
